Source: patent publication US20240317858A1 (Adimab, published 2024)
Substitutions are numbered along the chain they refer to.

B1: Antibody No. V010 (ADI-70327) Fab (Fab, V domains shown)
VH: QVQLVQSGAEVKKPGASVKVSCKASGFDIKDYYMHWVRQAPGQRLEWIGWIELENDDTVYDAKFQGRVTITRDTSASTAYMELSSLRSEDTAVYYCARDAYGRYFYDVWGQGTLVTVSS
VL: DIVMSQSPDSLAVSLGERATINCKSSQSLLNARTGKNYLAWYQQKPGQPPKLLIYWASTRSSGVPDRFSGSGSGTDFTLTISSLQAEDVAVYYCVQSYFRRTFGGGTKVEIK
notes: Fab by papain digestion of the IgG1
B2: Antibody No. A001 (ADI-26906) IgG1 (antibody, V domains shown)
VH: B1 VH with D28N, I48M, E52D, D56A, D57N, V59I
VL: B1 VL with S5T, S61E, V95K, F99S
notes: IgG1, CHO-produced
B3: Antibody No. V008 (ADI-70325) IgG1 (antibody, V domains shown)
VH: B1 VH with D28N, E52D, D56A, D57E, G66D
VL: B1 VL
notes: IgG1, CHO-produced
B4: Antibody No. V012 (ADI-70329) IgG1 (antibody, V domains shown)
VH: B1 VH with D28N, I29D, E52D, D56A, D57E, G66D
VL: B1 VL
notes: IgG1, CHO-produced
B5: Antibody No. V002 (ADI-67445) IgG1 (antibody, V domains shown)
VH: B1 VH with D28N, I48M, E52D, D56A, D57E, V59I, G66D, V108E
VL: B1 VL with S5T, S61E, V95K, F99S
notes: IgG1, CHO-produced
B6: Antibody No. V005 (ADI-67448) IgG1 (antibody, V domains shown)
VH: B1 VH with D28N, K30D, I48M, E52D, D57N, V59I
VL: B1 VL with S5T, S61E, V95K, F99S
notes: IgG1, CHO-produced; VH as printed is identical to that of V004
B7: Antibody No. V007 (ADI-67450) IgG1 (antibody, V domains shown)
VH: B1 VH with D28N, K30D, I48M, E52D, D56A, D57N, V59I, Y60D
VL: B1 VL with S5T, S61E, V95K, F99S
notes: IgG1, CHO-produced
B8: Antibody No. A002 (ADI-50024) IgG1 (antibody, V domains shown)
VH: B1 VH with D28N, E52D, D56A, D57N
VL: B1 VL
notes: IgG1, CHO-produced
B9: Antibody No. V006 (ADI-67449) IgG1 (antibody, V domains shown)
VH: B1 VH with D28N, I29D, I48M, E52D, D56A, D57E, V59I, G66D
VL: B1 VL with S5T, S61E, V95K, F99S
notes: IgG1, CHO-produced
B10: Antibody No. V003 (ADI-67446) IgG1 (antibody, V domains shown)
VH: B1 VH with I48M, D56A, V59I
VL: B1 VL with S5T, S61E, V95K, F99S
notes: IgG1, CHO-produced
B11: Antibody No. V011 (ADI-70328) IgG1 (antibody, V domains shown)
VH: B1 VH with D28N, K30D, E52D, D57N
VL: B1 VL
notes: IgG1, CHO-produced

Tests used:
[1] = molecular target: T1, Human CD3εδ Fc heterodimer (Hu CD3ε Fc + CD3δ Fc-HIS) (human, UniProt P07766 22-126; P04234 22-100); assay: BLI (Octet), Fab monovalent, pH 6.0
T1 construct: range 22-126;range 22-100; Made in HEK 293 cells with a heterologous signal peptide; also called Hu CD3εδ-Fc; CD3εδ Fc-HIS heterodimer; not shown: Fc; Fc followed by HIS tag
T1 sequence (P07766 22-126, stated change not applied, form in doubt, chain 1 of 2): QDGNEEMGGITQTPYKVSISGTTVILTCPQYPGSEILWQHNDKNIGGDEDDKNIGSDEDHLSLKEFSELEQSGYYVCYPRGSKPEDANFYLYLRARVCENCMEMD
T1 sequence (P04234 22-100, stated change not applied, form in doubt, chain 2 of 2): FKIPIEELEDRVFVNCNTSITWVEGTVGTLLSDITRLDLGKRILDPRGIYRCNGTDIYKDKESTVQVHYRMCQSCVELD
Method: (§1) ForteBio KD measurements (Biolayer interferometry; BLI). ForteBio affinity measurements were performed generally as previously described (Estep, P., et al., High throughput solution-based measurement of antibody-antigen affinity and epitope binning. MAbs, 2013. 5(2): p. 270-8.). Briefly, ForteBio affinity measurements were performed by loading IgGs or CD3εδ Fe-HIS heterodimer onto AHC sensors. Sensors were equilibrated off-line in assay buffer for 30 min and then monitored on-line for 60 seconds for baseline establishment. Sensors with loaded IgGs were exposed to 100 nM antigen (e.g., CD3) for 3 min, afterwards they were transferred to assay buffer for 10 min for off-rate measurement. Sensors loaded with CD3εδ Fe-HIS heterodimer were exposed to 100 nM anti-CD3 Fab for 3 min, afterwards they were transferred to assay buffer for 3 min or 10 min for off-rate measurement. Kinetics were analyzed using the 1:1 binding model. For measuring binding at different pHs, measurements were performed at pre-determined pHs (e.g., pH 7.4 and pH 6.0).
(§2) Anti-CD3 antibodies A001-A005, V002, V004, V007, V009, V010, V013, and V014-V019 were produced as IgG1s in CHO cells, and Fab fragments were generated from IgG1 antibodies by papain digestion and purification as described in Example 2. Human, cynomolgus, rhesus, and mouse CD3εδ Fc heterodimers were produced, and monovalent binding affinity and avidity at pH 7.4 and pH 6.0 were measured using the Octet® HTX instrument (ForteBio) as described in Example 2.

[2] = molecular target: T2, Cynomolgus CD3εδ Fc heterodimer (Cy CD3ε Fc + CD3δ Fc-HIS) (cynomolgus, UniProt Q95LI5 22-117; Q95LI8 22-100); assay: BLI (Octet), Fab monovalent, pH 6.0
T2 construct: range 22-117;range 22-100; Made in HEK 293 cells with a heterologous signal peptide; also called Cy CD3εδ-Fc; cyno CD3εδ Fc; not shown: Fc; Fc followed by HIS tag
T2 sequence (Q95LI5 22-117, stated change not applied, form in doubt, chain 1 of 2): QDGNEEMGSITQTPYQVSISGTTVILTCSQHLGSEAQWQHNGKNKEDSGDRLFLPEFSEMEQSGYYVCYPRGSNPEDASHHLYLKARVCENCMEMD
T2 sequence (Q95LI8 22-100, stated change not applied, form in doubt, chain 2 of 2): as the sequence (P04234 22-100, stated change not applied, form in doubt, chain 2 of 2) above, with I5V, N15K, I20V, S32T, D33N, I34N, T64A, S74N counted along it
Method: as §1, §2

[3] = molecular target: T1, Human CD3εδ Fc heterodimer (Hu CD3ε Fc …); assay: BLI (Octet), Fab monovalent, pH 7.4
Method: as §1, §2

[4] = molecular target: T2, Cynomolgus CD3εδ Fc heterodimer (Cy …); assay: BLI (Octet), Fab monovalent, pH 7.4
Method: as §1, §2

[5] = molecular target: T3, Rhesus CD3εδ Fc heterodimer (rhesus); assay: BLI (Octet), Fab monovalent, pH 7.4
T3 construct: extracellular domain; also called Rh CD3εδ-Fc
Method: as §1, §2

[6] = molecular target: T1, Human CD3εδ Fc heterodimer (Hu CD3ε Fc …); assay: BLI (Octet), CD3εδ Fc on AHC sensor, 100 nM Fab
Method: (§3) Affinity of the anti-CD3 antibodies for CD3 was determined by measuring their kinetic constants (kₒₙ, koff, KD) on ForteBio Octet®. ForteBio affinity measurements were performed generally as previously described (Estep et al., MAbs. 2013 5(2):270-8). […] Sensors were equilibrated off-line in assay buffer for 30 minutes and then monitored on-line for 60 seconds for baseline establishment. For monovalent binding measurement, sensors with loaded CD3εδ Fc were exposed to 100 nM anti-CD3 Fab, as further described in Example 2 below] for 3 minutes, afterwards they were transferred to assay buffer for 3 minutes for off-rate measurement. Kinetics data were fit using a 1:1 binding model in the data analysis software provided by ForteBio.

[7] = molecular target: T2, Cynomolgus CD3εδ Fc heterodimer (Cy …); assay: BLI (Octet), CD3εδ Fc on AHC sensor, 100 nM Fab
Method: as §3

[8] = molecular target: T1, Human CD3εδ Fc heterodimer (Hu CD3ε Fc …); assay: SPR (Biacore), Fab over immobilized CD3εδ Fc, pH 6.0
Method: (§4) Anti-CD3 antibodies A001-A005, V002, V004, V007, V009, V010, V013, and V014-V019 were produced in CHO cells, and Fab fragments were generated from IgG1 antibodies by papain digestion and purification as described in Example 2. Monovalent binding affinity at pH 7.4 and pH 6.0 was measured via surface plasmon resonance (SPR). Briefly, human or cynomolgus CD3εδ Fe heterodimer produced as described in Example 2 was immobilized to a CM5 sensor chip in a Biacore® X100 (Cytiva, previously GE Healthcare Life Sciences) to a response level of ˜500 RUs. Fabs were then injected at 3-fold increasing concentrations, ranging from 0.74-180 nM. The sensor chip was doubly regenerated between cycles using 0.35 M EDTA and 0.1 M NaOH. The resulting data were double reference subtracted and fit to a 1:1 binding model using Biacore® Evaluation Software.

[9] = molecular target: T2, Cynomolgus CD3εδ Fc heterodimer (Cy …); assay: as above
Method: as §4

[10] = molecular target: T1, Human CD3εδ Fc heterodimer (Hu CD3ε Fc …); assay: SPR (Biacore), Fab over immobilized CD3εδ Fc, pH 7.4
Method: as §4

[11] = molecular target: T2, Cynomolgus CD3εδ Fc heterodimer (Cy …); assay: as above
Method: as §4

[12] = molecular target: T4, Human CD3 on CD3+ Jurkat cells (human, UniProt P07766 23-207); assay: flow cytometry, 100 nM IgG
T4 construct: whole, on cells; Target is the endogenous CD3 complex on cells; also called Human CD3+ Jurkat cells
T4 sequence (P07766 23-207): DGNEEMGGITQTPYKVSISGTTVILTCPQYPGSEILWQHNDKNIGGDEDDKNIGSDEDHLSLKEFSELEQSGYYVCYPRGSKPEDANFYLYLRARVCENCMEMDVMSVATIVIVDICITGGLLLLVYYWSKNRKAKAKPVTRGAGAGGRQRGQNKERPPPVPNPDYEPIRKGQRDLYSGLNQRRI
Method: (§5) Specificity of the anti-CD3 antibodies for human CD3+ Jurkat cells and Cynomolgus monkey HSC-F cells was determined using a FACS cell binding assay. Briefly, cells were thawed and washed with cold PBSF buffer (PBS+0.1% BSA, pH 7.4). About 200,000 cells were aliquoted per well of a 96-well plate and pelleted by centrifugation (5 minutes at 500×g). The cells were washed and resuspended in 100 μl PBSF with CHO-produced anti-CD3 IgG antibody (100 nM). The mixture (cells+antibody) was incubated for 20 minutes on ice, then washed twice with PBSF. Cells were resuspended in 50 μl of propidium iodide (1:500 dilution) and anti-human IgG-RPE (1:100 dilution) prepared in PBSF, then incubated for 20 minutes on ice in the dark before cells were washed twice with PBSF. Binding was analyzed on FACS Canto II. Also shown are results using cells without CD3 [CHO-S cells, Jurkat CD3 knockout (CD3−) cells, and HEK cells] for comparison, including results with Jurkat CD3-cells combined with anti-CD3 antibody Fab fragments (100 nM).

[13] = molecular target: T5, Cynomolgus CD3 on HSC-F cells (cynomolgus, UniProt Q95LI5 22-198); assay: flow cytometry, 100 nM IgG
T5 construct: whole, on cells; Target is the endogenous CD3 complex on cells; also called Cyno CD3 HSC-F cells; Cyno CD3+ HSC-F cells
T5 sequence (Q95LI5 22-198): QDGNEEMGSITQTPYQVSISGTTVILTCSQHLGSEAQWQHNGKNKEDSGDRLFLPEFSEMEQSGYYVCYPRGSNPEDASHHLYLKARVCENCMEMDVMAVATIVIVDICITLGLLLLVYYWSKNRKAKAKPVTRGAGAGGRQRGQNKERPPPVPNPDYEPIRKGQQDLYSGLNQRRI
Method: as §5

[14] = molecular target: T4, Human CD3 on CD3+ Jurkat cells; assay: flow cytometry, 100 nM IgG1, pH 7.4
Method: (§6) Cell binding assays. CD3+ human Jurkat cells (ATCC) and CHO-S cells (Invitrogen/ThermoFisher) were thawed and washed with cold PBSF buffer, pH 7.4 (PBS+0.1% BSA, pH 7.4). About 200,000 cells were aliquoted per well of a 96-well plate (FACS Assay Plate VWR BD 353263) and pelleted by centrifugation (5 minutes at 500×g). The cells were washed with either PBSF pH 7.4 or PBSF pH 6.0 (PBS+0.1% BSA, pH 6.0), and then resuspended in 100 μl in either PBSF pH 7.4 or PBSF pH 6.0 with IgG1 antibody (100 nM) produced in yeast as described above or in CHO cells. The mixture (cells+antibody) was incubated for 20 minutes on ice, then washed twice with either PBSF pH 7.4 or PBSF pH 6.0. Cells were resuspended in 50 μl of propidium iodide (Roche; 1:500 dilution) and anti-human IgG-RPE (Southern Biotech; 1:100 dilution) prepared in either PBSF pH 7.4 or PBSF pH 6.0, then incubated for 20 minutes on ice in the dark before cells were washed twice with either PBSF pH 7.4 or PBSF pH 6.0. Binding was analyzed on FACS Canto II.
(§7) Anti-CD3 antibodies A001-A005, V002, V004, V007, V009, V010, V013, and V014-V019 were produced as IgG1s in CHO cells, and binding to human CD3+ Jurkat cells and cynomolgus CD3+ HSC-F cells at pH 7.4 was analyzed by flow cytometry as described in Example 2. NCB (Normalized Cell Binding) values were calculated based on control and sample MFI values as NCB={(Sample MFI)−(Secondary only MFI)}/(Secondary only MFI).

[15] = molecular target: T5, Cynomolgus CD3 on HSC-F cells; assay: flow cytometry, 100 nM IgG1, pH 7.4
Method: as §6, §7

Binder | MFI [12] | MFI [13] | NCB (Normalized Cell Binding) [14] | NCB (Normalized Cell Binding) [15] | also measured
B1 | – | – | – | – | Kd [1]: 2 nM; Kd [2]: 1.9 nM; Kd [3]: 4.1 nM; Kd [4]: 3.4 nM; Kd [5]: 4.4 nM; Kd [6]: 1.92 nM; Kd [7]: 1.91 nM; Kd [8]: 3.1 nM; Kd [9]: 0.82 nM; Kd [10]: 0.39 nM; Kd [11]: 0.45 nM
B2 | 3150 MFI | 6050 MFI | 289 | 400 | –
B3 | 3200 MFI | 6400 MFI | – | – | –
B4 | 3020 MFI | 5800 MFI | – | – | –
B5 | 3040 MFI | 5960 MFI | 320 | 388 | –
B6 | 3150 MFI | 5940 MFI | – | – | –
B7 | 2930 MFI | 5490 MFI | 287 | 368 | –
B8 | 3410 MFI | 6310 MFI | 366 | 417 | –
B9 | 3040 MFI | 5750 MFI | – | – | –
B10 | 3020 MFI | 6010 MFI | – | – | –
B11 | 3000 MFI | 5910 MFI | – | – | –
